Data from patent publication US6596500B1, “Binding of retinoids to M6P/IGF-II receptor” (The General Hospital Corporation, priority 1998, dated 2003).

Biological target: T1, partially purified rat M6P/IGF-II receptor (Rattus norvegicus, UniProt G3V824)
T1 construct: both intact (300 kDa) and truncated (260 kDa) forms of M6P/IGF-II receptor exist in the serum; from tissue; host or cells: neonatal rat serum, FPLC Sepharose-12 fraction
Experiment: Equilibrium [3H]RA ligand-binding assay (dextran-charcoal), Scatchard analysis
Conditions: β-glucuronidase 2,500 units/ml
Description: Partially purified M6P/IGF-II receptors from neonatal rat serum was prepared using a Fast Protein Liquid Chromatography (FPLC) system equipped with a Sepharose-12 column (Pharmacia). The partially purified M6P/IGF2R protein was diluted in binding buffer (20 mM Tris-HCl, pH 8.0/150 mM NaCl/1mM DTT/protease inhibitors) at a concentration of 50 Ag/ml. […] Incubation was carried out at 22° C. for 2 h in the dark. After the incubation, 0.2 ml chilled charcoal-dextran suspension (charcoal/dextran/glycerol=0.5%/0.05%/20%) was added to remove the unbound ligand.

T1 sequence (G3V824 36-2481): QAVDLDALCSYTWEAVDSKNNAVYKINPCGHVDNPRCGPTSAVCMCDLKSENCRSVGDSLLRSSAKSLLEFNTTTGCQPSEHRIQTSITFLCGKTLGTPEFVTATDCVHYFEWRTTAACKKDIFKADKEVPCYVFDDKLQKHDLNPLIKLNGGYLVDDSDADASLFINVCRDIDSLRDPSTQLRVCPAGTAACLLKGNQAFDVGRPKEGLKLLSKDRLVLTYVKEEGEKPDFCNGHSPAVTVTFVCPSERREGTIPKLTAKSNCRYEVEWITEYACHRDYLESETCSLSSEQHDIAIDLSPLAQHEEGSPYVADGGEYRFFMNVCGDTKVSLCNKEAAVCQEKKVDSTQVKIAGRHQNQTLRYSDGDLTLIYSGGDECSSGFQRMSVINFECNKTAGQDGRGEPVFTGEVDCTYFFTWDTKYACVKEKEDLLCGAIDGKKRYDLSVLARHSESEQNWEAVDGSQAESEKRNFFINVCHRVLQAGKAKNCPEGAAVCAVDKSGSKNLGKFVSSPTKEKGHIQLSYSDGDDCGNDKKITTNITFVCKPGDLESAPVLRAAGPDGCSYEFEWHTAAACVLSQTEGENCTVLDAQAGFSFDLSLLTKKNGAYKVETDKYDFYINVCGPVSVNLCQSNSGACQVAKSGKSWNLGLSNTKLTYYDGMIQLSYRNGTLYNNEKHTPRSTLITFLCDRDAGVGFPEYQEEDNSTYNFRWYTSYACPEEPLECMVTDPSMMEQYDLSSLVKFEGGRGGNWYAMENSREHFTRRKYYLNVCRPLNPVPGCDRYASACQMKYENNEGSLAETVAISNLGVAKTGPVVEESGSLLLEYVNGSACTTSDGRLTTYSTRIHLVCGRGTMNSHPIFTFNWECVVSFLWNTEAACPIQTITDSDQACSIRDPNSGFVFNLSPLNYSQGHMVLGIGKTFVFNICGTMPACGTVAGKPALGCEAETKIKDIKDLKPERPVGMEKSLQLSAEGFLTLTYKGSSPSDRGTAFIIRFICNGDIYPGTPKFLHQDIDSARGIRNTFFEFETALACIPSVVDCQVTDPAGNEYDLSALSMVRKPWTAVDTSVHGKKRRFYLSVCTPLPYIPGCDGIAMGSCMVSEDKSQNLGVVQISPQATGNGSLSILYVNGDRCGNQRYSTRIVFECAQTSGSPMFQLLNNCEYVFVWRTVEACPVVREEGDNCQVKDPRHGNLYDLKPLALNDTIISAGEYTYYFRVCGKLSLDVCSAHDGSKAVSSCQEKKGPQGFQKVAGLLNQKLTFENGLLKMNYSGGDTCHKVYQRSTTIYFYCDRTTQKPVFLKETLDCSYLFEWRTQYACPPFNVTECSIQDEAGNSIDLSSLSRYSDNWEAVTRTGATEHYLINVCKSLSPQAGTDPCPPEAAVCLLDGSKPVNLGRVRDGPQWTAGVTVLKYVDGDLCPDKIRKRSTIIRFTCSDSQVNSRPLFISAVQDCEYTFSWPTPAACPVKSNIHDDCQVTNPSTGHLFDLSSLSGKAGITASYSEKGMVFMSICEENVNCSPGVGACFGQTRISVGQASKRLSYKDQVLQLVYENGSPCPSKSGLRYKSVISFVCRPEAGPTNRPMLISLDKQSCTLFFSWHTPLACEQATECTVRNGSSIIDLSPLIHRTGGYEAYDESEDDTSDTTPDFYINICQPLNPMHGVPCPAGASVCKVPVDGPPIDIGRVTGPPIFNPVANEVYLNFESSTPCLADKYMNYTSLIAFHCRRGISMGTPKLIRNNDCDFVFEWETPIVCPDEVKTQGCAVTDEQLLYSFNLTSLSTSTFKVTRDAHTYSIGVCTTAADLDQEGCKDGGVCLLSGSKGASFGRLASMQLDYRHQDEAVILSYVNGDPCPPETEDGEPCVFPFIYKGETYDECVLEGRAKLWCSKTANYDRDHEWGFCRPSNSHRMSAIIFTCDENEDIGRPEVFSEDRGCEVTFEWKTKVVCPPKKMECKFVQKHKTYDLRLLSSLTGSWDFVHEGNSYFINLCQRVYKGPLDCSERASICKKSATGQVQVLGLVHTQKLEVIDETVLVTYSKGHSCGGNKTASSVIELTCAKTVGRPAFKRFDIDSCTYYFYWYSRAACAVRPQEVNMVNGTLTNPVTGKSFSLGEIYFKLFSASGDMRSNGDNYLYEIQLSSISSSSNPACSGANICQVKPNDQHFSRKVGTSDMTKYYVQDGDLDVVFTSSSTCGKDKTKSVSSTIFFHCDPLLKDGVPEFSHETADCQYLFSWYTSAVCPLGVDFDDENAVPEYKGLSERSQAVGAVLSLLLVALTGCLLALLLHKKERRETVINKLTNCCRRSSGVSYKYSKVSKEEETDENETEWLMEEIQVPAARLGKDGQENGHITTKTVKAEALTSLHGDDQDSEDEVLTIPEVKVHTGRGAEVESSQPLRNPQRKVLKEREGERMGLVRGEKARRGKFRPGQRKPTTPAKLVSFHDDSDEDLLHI

Effect on [3H]RA binding to the receptor: increase [^3H]RA binding
B1: β-glucuronidase: M6P-containing lysosomal enzyme (protein, UniProt P08236 23-651, looked up)
Beta-glucuronidase: LQGGMLYPQESPSRECKELDGLWSFRADFSDNRRRGFEEQWYRRPLWESGPTVDMPVPSSFNDISQDWRLRHFVGWVWYEREVILPERWTQDLRTRVVLRIGSAHSYAIVWVNGVDTLEHEGGYLPFEADISNLVQVGPLPSRLRITIAINNTLTPTTLPPGTIQYLTDTSKYPKGYFVQNTYFDFFNYAGLQRSVLLYTTPTTYIDDITVTTSVEQDSGLVNYQISVKGSNLFKLEVRLLDAENKVVANGTGTQGQLKVPGVSLWWPYLMHERPAYLYSLEVQLTAQTSLGPVSDFYTLPVGIRTVAVTKSQFLINGKPFYFHGVNKHEDADIRGKGFDWPLLVKDFNLLRWLGANAFRTSHYPYAEEVMQMCDRYGIVVIDECPGVGLALPQFFNNVSLHHHMQVMEEVVRRDKNHPAVVMWSVANEPASHLESAGYYLKMVIAHTKSLDPSRPVTFVSNSNYAADKGAPYVDVICLNSYYSWYHDYGHLELIQLQLATQFENWYKKYQKPIIQSEYGAETIAGFHQDPPLMFTEEYQKSLLEQYHLGLDQKRRKYVVGELIWNFADFMTEQSPTRVLGNKKGIFTRQRQPKSAAFLLRERYWKIANETRYPHSVAKSQCLENSLFT
